Key:
[1] = biological target: T1, IL-12/23 p40 (Sino biological, 10052-H08H) (UniProt P29460 23-328); assay: ELISA, IL-12/23 p40 coated
T1 construct: Bought protein
T1 sequence (looked up): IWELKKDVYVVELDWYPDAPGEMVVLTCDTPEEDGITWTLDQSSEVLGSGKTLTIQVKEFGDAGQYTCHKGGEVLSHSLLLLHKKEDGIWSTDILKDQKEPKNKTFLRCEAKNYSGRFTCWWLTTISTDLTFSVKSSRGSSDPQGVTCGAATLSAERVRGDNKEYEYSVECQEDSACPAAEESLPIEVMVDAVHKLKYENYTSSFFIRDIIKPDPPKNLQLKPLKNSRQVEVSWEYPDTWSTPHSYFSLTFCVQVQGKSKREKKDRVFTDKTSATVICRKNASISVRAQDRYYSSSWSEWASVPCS

[2] = biological target: T2, BAFF (ACROBiosystems, BAF-H5248) (UniProt Q9Y275 134-285); assay: ELISA, fusion protein coated, BAFF titrated, Anti-His-HRP
T2 construct: Bought protein used in the ELISA with coated test sample
Method: The binding activity of the TACI fusion proteins for BAFF and APRIL was assayed by the ELISA method (coating a test fusion protein sample). The specific procedures were as follows:
The test sample was diluted to 2 μg/mL with a PBS (BasalMedia, B320) buffer at pH 7.4 and added to a 96-well microplate (Corning, 3590) at 100 μL/well. The plate was incubated at 4° C. overnight. After the liquid was discarded, 300 μL of 5% skim milk (BD, 232100) diluted with PBS was added to each well for blocking, and the plate was incubated at 37° C. for 2 h. After the blocking was completed, the blocking solution was discarded, and the plate was washed 3 times with a PBST buffer (PBS at pH 7.4 containing 0.1% tween-20). 100 μL of BAFF (ACROBiosystems, BAF-H5248) or APRIL (R&D Systems, 5860-AP-010/CF) diluted in a gradient was added to each well, and the plate was incubated at 37° C. for 1 h. After the incubation, the plate was washed 3 times with PBST. When detecting the binding to BAFF, 100 μL of Anti-His-HRP (Sino biological, 105327-MM02T-H, diluted at a ratio of 1:2000) was added to each well; when detecting the binding to APRIL, 100 μL of anti-HA-HRP (Abcam, ab1190, diluted at a ratio of 1:4000) was added to each well. The plate was incubated at 37° C. for 1 h. The plate was washed 3 times with PBST. 100 μL of TMB chromogenic substrate (KPL, 5120-0077) was added to each well, and the plate was incubated at room temperature for 10-15 min. The reaction was stopped by adding 50 μL of 1 M H₂SO₄ to each well. The plate was read for absorbance values at 450 nm on a microplate reader, the binding curves of the antibodies to an antigen were fitted with software, and the EC₅₀ values were calculated.

[3] = biological target: T3, mouse BAFF (BAF-M521y, Acro Biosystems) (mouse, UniProt Q9WU72 127-309); assay: SPR (Biacore), sample captured on Protein A, antigen flowed, 1:1 fit
T3 construct: Bought protein

[4] = biological target: T4, human APRIL (5860-AP-010/CF, R&D Systems) (human, UniProt O75888 115-250, limits assumed); assay: as above
T4 construct: Bought protein
T4 sequence (looked up): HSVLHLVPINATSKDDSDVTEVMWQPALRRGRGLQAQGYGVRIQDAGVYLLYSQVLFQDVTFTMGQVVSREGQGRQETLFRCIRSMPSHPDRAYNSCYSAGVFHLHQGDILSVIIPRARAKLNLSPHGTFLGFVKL

[5] = biological target: T5, mouse APRIL (7907-AP/CF, R&D Systems) (mouse, UniProt Q9D777 96-241, limits assumed); assay: as above
T5 construct: Bought protein
T5 sequence (looked up): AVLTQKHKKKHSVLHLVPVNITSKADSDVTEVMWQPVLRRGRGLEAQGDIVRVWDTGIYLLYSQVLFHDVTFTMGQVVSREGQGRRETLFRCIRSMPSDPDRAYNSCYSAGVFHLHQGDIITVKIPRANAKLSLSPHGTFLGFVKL

[6] = biological target: T6, cynomolgus monkey APRIL (APR-CM410B, Kactus) (cynomolgus monkey); assay: as above
T6 chain: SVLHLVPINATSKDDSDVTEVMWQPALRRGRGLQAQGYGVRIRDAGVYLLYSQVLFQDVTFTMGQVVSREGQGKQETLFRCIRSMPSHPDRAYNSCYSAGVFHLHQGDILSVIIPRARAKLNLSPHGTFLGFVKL

[7] = biological target: T7, human BAFF (10056-HNCH, Sino biological) (human, UniProt Q9Y275 134-285); assay: as above
T7 construct: Bought protein

[8] = biological target: BAFF (R&D Systems, 7537-BF) (UniProt Q9Y275 134-285); assay: cell-based or functional assay

B1: RCT-18 (Telitacicept) (Fc fusion)
chain: SRVDQEERFPQGLWTGVAMRSCPEEQYWDPLLGTCMSCKTICNHQSQRTCAAFCRSLSCRKEQGKFYDHLLRDCISCASICGQHPKQCAYFCENKLRSPVNLPPELDKTHTCPPCPAPEAEGAPSVFLFPPKPKDTLMISRTPEVTCVVVDVSHEDPEVKFNWYVDGVEVHNAKTKPREEQYNSTYRVVSVLTVLHQDWLNGKEYKCKVSNKALPSSIEKTISKAKGQPREPQVYTLPPSRDELTKNQVSLTCLVKGFYPSDIAVEWESNGQPENNYKTTPPVLDSDGSFFLYSKLTVDKSRWQQGNVFSCSVMHEALHNHYTQKSLSLSPGK
notes: Positive control; TACI part is positions 13-118 of the extracellular region of human TACI, the rest is Fc
binding result [1]: no binding
EC50 [2]: 96.2 nM
Kd [3]: 0.121 nM
koff [3]: 8.98e-05 s⁻¹
kon [3]: 740000 M⁻¹ s⁻¹
Kd [4]: 0.0281 nM
koff [4]: 0.000658 s⁻¹
kon [4]: 2.34e+07 M⁻¹ s⁻¹
Kd [5]: 0.00671 nM
koff [5]: 1.69e-05 s⁻¹
kon [5]: 2.52e+06 M⁻¹ s⁻¹
Kd [6]: 0.0436 nM
koff [6]: 0.000507 s⁻¹
kon [6]: 1.16e+07 M⁻¹ s⁻¹
Kd [7]: 0.186 nM
koff [7]: 0.00018 s⁻¹
kon [7]: 964000 M⁻¹ s⁻¹
IC50 (nM) for the inhibition of the BAFF-induced B cell proliferation [8]: 0.386 nM

Source: US20240301031A1 (JIANGSU HENGRUI PHARMACEUTICALS, published 2024)
